{"source": "patent US20250346679A1", "about": "(INVOX PHARMA, published 2025)", "key": {"[1]": {"target": "T1, human CD137, cell-surface (human, UniProt Q07011 24-255)", "experiment": "cell-based or functional assay"}, "[2]": {"target": "human PD-L1, cell-surface (human, UniProt Q9NZQ7 19-290)", "sequence (Q9NZQ7 19-290)": "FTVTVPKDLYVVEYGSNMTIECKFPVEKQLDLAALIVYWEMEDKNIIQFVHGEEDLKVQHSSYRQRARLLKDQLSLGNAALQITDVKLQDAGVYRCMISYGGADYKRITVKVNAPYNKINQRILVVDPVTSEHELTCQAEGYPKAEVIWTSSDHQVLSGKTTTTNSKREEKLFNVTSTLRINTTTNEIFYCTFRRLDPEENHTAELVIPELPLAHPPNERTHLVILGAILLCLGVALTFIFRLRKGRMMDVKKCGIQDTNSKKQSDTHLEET", "experiment": "cell-based or functional assay"}, "[3]": {"target": "T2, cynomolgus CD137, cell-surface (cynomolgus, UniProt Q07011 24-255 (human entry))", "T2 construct": "also called DO11.10.cCD137; CD137 on cynomolgus T cells", "T2 chain": "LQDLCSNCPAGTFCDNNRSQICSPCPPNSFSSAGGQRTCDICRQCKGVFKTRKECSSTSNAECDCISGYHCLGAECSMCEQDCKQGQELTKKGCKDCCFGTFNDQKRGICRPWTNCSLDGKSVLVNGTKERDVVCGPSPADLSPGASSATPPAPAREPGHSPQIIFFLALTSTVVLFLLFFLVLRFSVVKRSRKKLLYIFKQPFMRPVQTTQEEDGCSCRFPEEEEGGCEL", "experiment": "flow cytometry on DO11.10.cCD137", "protocol": "(§1) Non-specific binding was also assessed by testing binding to DO11.10 cells lacking CD137 expression.\n(§2) Briefly, DO11.10, DO11.10.hCD137 or DO11.10.cCD137 suspensions were prepared in FACS buffer (DPBS containing (Gibco, 14190-094) containing 0.5% BSA (Sigma, A7906)) and seeded at 1×10⁵ cell/well in 100 μl in round bottomed 96-well plates (VWR, 734-1797). […] The washed cells were resuspended in the diluted antibody mixture, incubated at 4° C. for 30 minutes, and then washed once in FACS buffer. […] Dead cells were excluded and the fluorescence in the APC channel (638 nm 660/20) was measured. The geometric mean fluorescence intensity (GMFI) values were plotted vs the log concentration of antibody and the resulting curves were fitted using the log (agonist) vs response equation in GraphPad Prism."}, "[4]": {"target": "T1, human CD137, cell-surface", "experiment": "flow cytometry on DO11.10.hCD137", "protocol": "as §1, §2"}, "hCD137-mFc-Avi": {"target": "T3, hCD137-mFc-Avi (human; mouse, UniProt Q07011 24-186, biotin on the Avi sequence where the biotinylated form was used)", "T3 construct": "also called human CD137-mFc-Avi; dimeric human CD137; not shown: mouse IgG2a Fc domain (mIgG2a Fc)", "T3 sequence (Q07011 24-186)": "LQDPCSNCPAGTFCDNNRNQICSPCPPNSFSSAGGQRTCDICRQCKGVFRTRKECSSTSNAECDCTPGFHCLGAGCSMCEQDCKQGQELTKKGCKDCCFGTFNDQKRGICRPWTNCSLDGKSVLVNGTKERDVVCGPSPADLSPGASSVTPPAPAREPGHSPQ", "experiment": "SPR, mAb^2 captured by anti-human Fab, antigen in flow", "protocol": "(§3) The binding of the anti-human CD137/PD-L1 mAb² to recombinant dimeric human and cynomolgus CD137 antigens was also measured by SPR using a Biacore T200 processing unit (GE Healthcare).\n(§4) Briefly, 20 μg/ml anti-human Fab antibody (GE Healthcare, Human Fab Capture kit 28958325) was coated on flow cells 1, 2, 3 and 4 of a Biacore sensor S chip CM5 (GE Healthcare, BR100530) achieving a final response of approximately 5000 RU. […] The recombinant dimeric antigens, human CD137-mFc-Avi or cynomolgus CD137-mFc-Avi (see Example 1.1 for antigen details) diluted in HBS-EP buffer, were injected on flow cell 1, 2, 3 or 4 as appropriate at a concentration range of 81 nM to 0.037 nM with 3-fold dilutions for 4 minutes at 70 μl/min and then allowed to dissociate in buffer for 10 minutes. Regeneration was achieved by injecting 10 mM glycine pH 2.1 (GE Healthcare, Human Fab Capture kit 28958325) for 60 seconds at a rate of 30 μl/min. Data analysis was performed as described in Example 9.1."}, "cCD137-mFc-Avi": {"target": "T4, cCD137-mFc-Avi (cynomolgus; mouse)", "T4 construct": "also called cynomolgus CD137-mFc-Avi; Cyno CD137-mFc-Avi; not shown: mouse IgG2a Fc domain (mIgG2a Fc)", "T4 chain": "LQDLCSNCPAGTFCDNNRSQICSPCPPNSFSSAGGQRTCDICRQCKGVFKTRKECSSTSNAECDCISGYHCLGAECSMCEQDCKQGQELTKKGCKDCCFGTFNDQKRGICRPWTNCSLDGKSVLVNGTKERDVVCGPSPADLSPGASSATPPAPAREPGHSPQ", "experiment": "SPR, mAb^2 captured by anti-human Fab, antigen in flow", "protocol": "as §3, §4"}, "[5]": {"target": "Human FcRn (Acro Biosystems, FCM-H5286) (human, UniProt P55899 24-297; P61769 21-119)", "sequence (P55899 24-297 limits assumed, chain 1 of 2)": "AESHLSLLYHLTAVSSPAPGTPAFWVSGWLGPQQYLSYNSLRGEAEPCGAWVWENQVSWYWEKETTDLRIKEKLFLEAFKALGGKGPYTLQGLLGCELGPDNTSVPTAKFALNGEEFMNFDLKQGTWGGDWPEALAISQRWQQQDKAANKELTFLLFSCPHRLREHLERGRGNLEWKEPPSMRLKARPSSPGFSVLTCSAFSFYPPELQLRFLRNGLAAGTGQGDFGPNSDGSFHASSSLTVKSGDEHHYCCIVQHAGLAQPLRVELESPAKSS", "sequence (P61769 21-119 limits assumed, chain 2 of 2)": "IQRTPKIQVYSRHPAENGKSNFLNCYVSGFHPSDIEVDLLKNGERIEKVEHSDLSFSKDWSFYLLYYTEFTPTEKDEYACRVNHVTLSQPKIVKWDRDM", "experiment": "SPR, mAb^2 immobilised, FcRn in flow, pH 6.0, steady state affinity; pH 6.0", "source_text": "(§5) The neonatal Fc receptor (FcRn) binding is critical for antibody recycling (Martins et al., 2016). […] G1-AA/HeID1.3 was included as an isotype control IgG control lacking mutations in the CH3 domain.\n(§6) Briefly, mAb² were individually coated on flow cell 2, 3 and 4 of Series S Sensor Chip CM5 (GE Healthcare, BR100530) to achieve a response of approximately 1000 RU. Flow cell 1 was activated/deactivated but left blank as a reference. Human FcRn (Acro Biosystems, FCM-H5286) or mouse FcRn (R&D systems, 9114-Fc) was dialysed and diluted in MHBS-EP⁺B pH 6.0 or pH 7.4 buffer (10 mM MES, FortéBio, 18-5026; 1×HBS-EP, GE Healthcare, BR100669; 0.1 mg/ml BSA, Sigma, A7906) and injected on flow cell 1, 2, 3 and 4 at 2000-3000 nM with 2-fold dilutions for 1 min at 80 μl/min and then allowed to dissociate in buffer for 3 min. […] Subtracted data (flow cell 2−flow cell 1, flow cell 3−flow cell 1, or flow cell 4−flow cell 1) was analysed using Biacore T200 Evaluation Software 2.0 to identify binding using the model steady state affinity."}, "[6]": {"target": "T5, mouse FcRn (R&D systems, 9114-Fc) (mouse, UniProt Q61559 22-297; P01887 21-119, limits assumed)", "T5 sequence (looked up) 1": "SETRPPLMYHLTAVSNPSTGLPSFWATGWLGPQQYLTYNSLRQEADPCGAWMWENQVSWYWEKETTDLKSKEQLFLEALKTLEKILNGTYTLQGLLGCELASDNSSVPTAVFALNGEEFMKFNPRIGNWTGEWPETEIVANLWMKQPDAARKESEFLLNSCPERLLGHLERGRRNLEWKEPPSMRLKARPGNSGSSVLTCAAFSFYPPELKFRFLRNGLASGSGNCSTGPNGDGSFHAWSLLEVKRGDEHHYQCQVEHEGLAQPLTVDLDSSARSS", "T5 sequence (looked up) 2": "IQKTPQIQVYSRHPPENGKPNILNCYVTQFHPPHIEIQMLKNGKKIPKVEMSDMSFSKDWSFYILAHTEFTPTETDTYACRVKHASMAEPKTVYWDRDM", "experiment": "SPR, mAb^2 immobilised, FcRn in flow, pH 6.0, steady state affinity; pH 6.0", "source_text": "as §5, §6"}}}
{"binder": "FS22-172-003-AA/E12v2 (bispecific antibody, human IgG1, kappa, L234A L235A, PD-L1 site in the Fab, CD137 site in the CH3, LALA; also called anti-human CD137/PD-L1 mAb^2) heavy: EVQLVQSGAEVKRPGASVKVSCKASGYPFTSYGISWVRQAPGQGLEWMGWISAYSGGTNYAQKLQGRVTMTTDTSTSTAYMELRSLRSDDTAVYYCARDLFPTIFGVSYYYYWGQGTLVTVSSASTKGPSVFPLAPSSKSTSGGTAALGCLVKDYFPEPVTVSWNSGALTSGVHTFPAVLQSSGLYSLSSVVTVPSSSLGTQTYICNVNHKPSNTKVDKKVEPKSCDKTHTCPPCPAPEAAGGPSVFLFPPKPKDTLMISRTPEVTCVVVDVSHEDPEVKFNWYVDGVEVHNAKTKPREEQYNSTYRVVSVLTVLHQDWLNGKEYKCKVSNKALPAPIEKTISKAKGQPREPQVYTLPPSRDELPYIIPPYNQVSLTCLVKGFYPSDIAVEWESNGQPENNYKTTPPVLDSDGSFFLYSKLTVGADRWLEGNVFSCSVMHEALHNHYTQKSLSLSPG light: DIQMTQSPSTLSASVRDRVIITCRASQSIGNRLAWYQHKPGKAPKLLIYEASTSETGVPSRFSGSGSGTDFTLTISSLQPEDFATYYCQQSYSTPYTFGQGTKLEIKRTVAAPSVFIFPPSDEQLKSGTASVVCLLNNFYPREAKVQWKVDNALQSGNSQESVTEQDSKDSTYSLSSTLTLSKADYEKHKVYACEVTHQGLSSPVTKSFNRGEC", "values": [{"measurement": "EC50 (nM), hIL-2 release, CD8+ T cells, donor 171115A, HEK.hPD-L1 XL", "setting": "[1]", "value": 0.24, "unit": "nM"}, {"measurement": "EC50 (nM), hIL-2 release, CD8+ T cells, donor 171115A, MDA-MB-231 XL", "setting": "[1]", "value": 0.02, "unit": "nM"}, {"measurement": "EC50 (nM), hIL-2 release, CD8+ T cells, donor 171115B, HEK.hPD-L1 XL", "setting": "[1]", "value": 0.31, "unit": "nM"}, {"measurement": "EC50 (nM), hIL-2 release, CD8+ T cells, donor 171115B, MDA-MB-231 XL", "setting": "[1]", "value": 0.02, "unit": "nM"}, {"measurement": "EC50 (nM), IFN-γ release, human MLR", "setting": "[2]", "value": 0.07, "unit": "nM"}, {"measurement": "EC50", "setting": "[3]", "value": 7.39, "unit": "nM"}, {"measurement": "EC50", "setting": "[4]", "value": 6.2, "unit": "nM"}, {"measurement": "Kd", "setting": "hCD137-mFc-Avi", "value": 0.7, "unit": "nM"}, {"measurement": "Kd", "setting": "cCD137-mFc-Avi", "value": 0.8, "unit": "nM"}, {"measurement": "Kd", "setting": "[5]", "value": 1120, "unit": "nM"}, {"measurement": "Kd", "setting": "[6]", "value": 158, "unit": "nM"}]}
